Results: US20240109962A1 (SPARX BIOSCIENCE, published 2024)

Tests used:
[1] = target: LILRB2 antigen of the ELISA of Table 5 (format not specified) (UniProt Q8N423 22-460, limits assumed); experiment: ELISA, antibody titration
[2] = target: T1, human LILRB2 expressed on cells (293T-LILRB2, CHO-K1-LILRB2) (human, UniProt Q8N423 22-597); experiment: flow cytometry, blockade of His-tagged HLA-G tetramer binding to 293T-LILRB2 cells; fit table under the graph
T1 construct: whole, on cells; the cell line is named under assay; also called HEK293T-LILRB2
Experimental: Serial diluted humanized LILRB2 antibodies were then added to the mixture and incubated at room temperature for another 45 minutes. The binding of HLA-G/LILRB2 was detected afterwards using a secondary PE-labeled anti-His tag antibody via flow cytometry.

[3] = target: T1, human LILRB2 expressed on cells …; experiment: flow cytometry, His-HLA-A2 tetramer (competitor) bound to 293T-LILRB2 cells, relative to no antibody; set-up: concentration or dose not given beside the values
Experimental: Serial diluted h#2E1 antibodies were then added to the mixture and incubated at room temperature for another 45 minutes. […]

[4] = target: T2, recombinant human LILRB2 protein (human, UniProt Q8N423 22-460, limits assumed); experiment: ELISA, coated recombinant human LILRB2; set-up: unit not given here
T2 construct: also called recombinant LILRB2 protein
Experimental: This affinity maturation library was screened against human LILRB2 to identify antibodies having high binding affinity to LILRB2. Briefly, an ELISA plate was coated with 0.1 ug/well recombinant human LILRB2 protein. Serial diluted maturated h#2E1 antibodies were incubated in the LILRB2 coated plate for 2 hrs. The plate was washed and a secondary HRP-labeled anti-human IgG was then added to each well. After being incubated at room temperature for 1 hour, the colorimetric ELISA signals were developed by adding the TMB substrate and reaction was stopped by 1M H3PO4. Table 7 below provides binding activities of exemplary matured antibodies to recombinant LILRB2 protein.

[5] = target: T1, human LILRB2 expressed on cells …; experiment: flow cytometry, 293T-LILRB2 cells
Excerpt: The fluorescent signals were detected by flow cytometry.

T2 sequence (Q8N423 22-460 limits assumed): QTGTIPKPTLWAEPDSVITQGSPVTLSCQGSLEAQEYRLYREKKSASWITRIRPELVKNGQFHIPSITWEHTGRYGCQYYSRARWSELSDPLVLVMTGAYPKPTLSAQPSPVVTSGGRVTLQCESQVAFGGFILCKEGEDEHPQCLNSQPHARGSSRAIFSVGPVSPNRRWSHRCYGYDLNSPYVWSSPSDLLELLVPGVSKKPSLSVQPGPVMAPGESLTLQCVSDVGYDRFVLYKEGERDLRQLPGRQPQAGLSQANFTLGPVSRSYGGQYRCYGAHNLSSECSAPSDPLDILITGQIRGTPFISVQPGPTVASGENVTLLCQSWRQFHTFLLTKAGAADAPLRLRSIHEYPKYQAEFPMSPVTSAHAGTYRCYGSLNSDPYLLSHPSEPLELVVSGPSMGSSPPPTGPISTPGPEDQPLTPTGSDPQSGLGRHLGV
T1 sequence (Q8N423 22-597): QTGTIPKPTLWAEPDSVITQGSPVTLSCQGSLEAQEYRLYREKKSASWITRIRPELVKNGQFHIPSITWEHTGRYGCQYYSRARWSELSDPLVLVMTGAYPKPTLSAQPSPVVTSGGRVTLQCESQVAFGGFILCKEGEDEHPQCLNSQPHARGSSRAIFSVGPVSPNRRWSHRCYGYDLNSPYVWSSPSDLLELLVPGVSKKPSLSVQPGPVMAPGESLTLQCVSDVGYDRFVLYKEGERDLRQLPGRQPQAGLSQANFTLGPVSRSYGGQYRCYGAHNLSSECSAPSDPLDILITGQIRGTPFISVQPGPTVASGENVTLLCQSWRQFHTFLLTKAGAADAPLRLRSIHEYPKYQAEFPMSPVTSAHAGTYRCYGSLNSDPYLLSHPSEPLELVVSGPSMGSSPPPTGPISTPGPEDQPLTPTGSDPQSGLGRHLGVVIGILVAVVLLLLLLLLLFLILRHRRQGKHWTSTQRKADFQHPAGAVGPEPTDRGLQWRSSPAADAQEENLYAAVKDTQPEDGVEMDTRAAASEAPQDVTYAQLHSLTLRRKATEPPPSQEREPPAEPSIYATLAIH
Sequence of LILRB2 antigen of the ELISA of Table 5 (format not specified) (Q8N423 22-460 limits assumed): as the sequence (Q8N423 22-460 limits assumed) above

Binder	Kd [1]	IC50 [2]	% no Ab [3]	Bmax [4]	Bmax [5]
Antibody 2E1_FD4 (antibody, V domains shown) VH: EVQLVESGGGLVQPGGSLRLSCAVSGYSITSGYYWNWIRQAPGKGLEWVAYISYDGNPNYNPSLKNRFTISRDTSKNTFYLQMNSLRAEDTAVYYCAREESTMITTAWFAYWGQGTLVTVSS VL: DIQMTQSPSSLSASVGDRVTITCRASENIYSNLAWYQQKPGKAPKLLIYGATNLASGVPSRFSGSGSGTDYTLTISSLQPEDFATYYCQHFWDTPYTFGQGTKVEIK	–	–	49%	1.14	431000
Antibody 2E1_GA1 (antibody, V domains shown) VH: EVQLVESGGGLVQPGGSLRLSCAVSGYSITSGYYWWWIRQAPGKGLEWVAYISYDGNNNYNPSLKNRFTISRDTSKNTFYLQMNSLRAEDTAVYYCAREESTMITTAWFAYWGQGTLVTVSS VL: DIQMTQSPSSLSASVGDRVTITCRASENIYSNLAWYQQKPGKAPKLLIYGATNLASGVPSRFSGSGSGTDYTLTISSLQPEDFATYYCQHFWDTPYTFGQGTKVEIK	–	–	–	1.62	739000
Antibody 2E1_FE1 (antibody, V domains shown) VH: EVQLVESGGGLVQPGGSLRLSCAVSGYSITSGYYWNWIRQAPGKGLEWVAYISYDGNMNYNPSLKNRFTISRDTSKNTFYLQMNSLRAEDTAVYYCAREESTMITTAWFAYWGQGTLVTVSS VL: DIQMTQSPSSLSASVGDRVTITCRASENIYSNLAWYQQKPGKAPKLLIYGATNLASGVPSRFSGSGSGTDYTLTISSLQPEDFATYYCQHFWDTPYTFGQGTKVEIK	–	–	–	–	690000
Antibody 2E1_FG2 (antibody, V domains shown) VH: EVQLVESGGGLVQPGGSLRLSCAVSGYSITSGYYWNWIRQAPGKGLEWVAYISYDGNTNYNPSLKNRFTISRDTSKNTFYLQMNSLRAEDTAVYYCAREESTMITTAWFAYWGQGTLVTVSS VL: DIQMTQSPSSLSASVGDRVTITCRASENIYSNLAWYQQKPGKAPKLLIYGATNLASGVPSRFSGSGSGTDYTLTISSLQPEDFATYYCQHFWDTPYVFGQGTKVEIK	–	–	53.6%	1.26	417000
Antibody 2E1_FG4 (antibody, V domains shown) VH: EVQLVESGGGLVQPGGSLRLSCAVSGYSITSGYYWNWIRQAPGKGLEWVAYISYDGNVNYNPSLKNRFTISRDTSKNTFYLQMNSLRAEDTAVYYCAREESTMITTAWFAYWGQGTLVTVSS VL: DIQMTQSPSSLSASVGDRVTITCRASENIYSNLAWYQQKPGKAPKLLIYGATNLASGVPSRFSGSGSGTDYTLTISSLQPEDFATYYCQHFWDTPYIFGQGTKVEIK	–	–	55.4%	1.4	434000
Antibody 2E1_GB7 (antibody, V domains shown) VH: EVQLVESGGGLVQPGGSLRLSCAVSGYSITSGYYWWWIRQAPGKGLEWVAYISYDGNNNYNPSLKNRFTISRDTSKNTFYLQMNSLRAEDTAVYYCAREESTMITTAWFAYWGQGTLVTVSS VL: DIQMTQSPSSLSASVGDRVTITCLASENIYSNLAWYQQKPGKAPKLLIYGATNLASGVPSRFSGSGSGTDYTLTISSLQPEDFATYYCQHFWDTPYTFGQGTKVEIK	–	–	–	1.48	636000
Antibody 2E1_FF3 (antibody, V domains shown) VH: EVQLVESGGGLVQPGGSLRLSCAVSGYSITSGYYWNWIRQAPGKGLEWVAYISYDGNNSYNPSLKNRFTISRDTSKNTFYLQMNSLRAEDTAVYYCAREESTMITTAWFAYWGQGTLVTVSS VL: DIQMTQSPSSLSASVGDRVTITCRASENIYSNLAWYQQKPGKAPKLLIYGATNLASGVPSRFSGSGSGTDYTLTISSLQPEDFATYYCQHFWDTPYTFGQGTKVEIK	–	–	–	1.17	434000
Antibody 2E1_GA4 (antibody, V domains shown) VH: EVQLVESGGGLVQPGGSLRLSCAVSGYSITSGYAWNWIRQAPGKGLEWVAYISYDGNNNYNPSLKNRFTISRDTSKNTFYLQMNSLRAEDTAVYYCAREESTMITTAWFAYWGQGTLVTVSS VL: DIQMTQSPSSLSASVGDRVTITCVASENIYSNLAWYQQKPGKAPKLLIYGATNLASGVPSRFSGSGSGTDYTLTISSLQPEDFATYYCQHFWDTPYTFGQGTKVEIK	–	–	–	1.61	725000

The next lines start with the values.

Kd [1]	IC50 [2]	% no Ab [3]	Bmax [4]	Bmax [5]	Binder
11.7 nM	–	–	–	–	Antibody 13C4 (antibody, V domains shown, Mouse hybridoma mAb purified from ascites) VH: QIHLVQSGPELKKPGETVKISCKASGYTFTNYGMNWVKQAPGKALKWMGWMNTYIGEPTYADDFKGRFAFSLETSASTAYLQINNLKNEDMATYFCARRGDYASYYFDYWGQGTTLTVSS VL: DIVLTQSPATLSVTPGDSVSLSCRASQNINNNLHWYHQKSHESPRLLIKYASQSISGIPSRVSGSGSGTDFTLSIVTVETEDFGMFFCQQSNSWPHTFGGGTKLEIR
–	~0.833 nM	–	–	–	chimeric 9B6 (antibody, V domains shown) VH: DVQLVESGGGLVQPGWSRILSCAASGFTFSNFGMHWVRQAPEKGLEWVAYISSGSGTIYYSDTVRGRFTISRDNPKNTLFLLMTSLRSEDTAMYYCTRSDYDGDWFFDVWGAGTTVTVSS VL: DIVMTQSHRFLSTSVGDRVTITCKASQDVTTAVAWCQQKPGQSPKLLIYSASFRYTGVPDRFTGSGSGTDFTFTINNVQAEDLALYYCQQHFTTPLTFGAGTKLELK
–	–	–	1.14	641000	Antibody 2E1_GH3 (antibody, V domains shown) VH: EVQLVESGGGLVQPGGSLRLSCAVSGYSITSGYYWNWIRQAPGKGLEWVAYISYDGNNNYNPSLKNRFTISRDTSKNTFYLQMNSLRAEDTAVYYCAREESTMITTAWFAYWGQGTLVTVSS VL: DIQMTQSPSSLSASVGDRVTITCRASENIYSNLAWYQQKPGKAPKLLIYGATNLSSGVPSRFSGSGSGTDYTLTISSLQPEDFATYYCQHFWDTPYTFGQGTKVEIK
–	–	–	1.56	688000	Antibody 2E1_GF8 (antibody, V domains shown) VH: EVQLVESGGGLVQPGGSLRLSCAVSGYSITSGYYWWWIRQAPGKGLEWVAYISYDGNNNYNPSLKNRFTISRDTSKNTFYLQMNSLRAEDTAVYYCAREESTMITTAWFAYWGQGTLVTVSS VL: DIQMTQSPSSLSASVGDRVTITCRGSENIYSNLAWYQQKPGKAPKLLIYGATNLASGVPSRFSGSGSGTDYTLTISSLQPEDFATYYCQHFWDTPYTFGQGTKVEIK
–	–	–	1.44	697000	Antibody 2E1_GC8 (antibody, V domains shown) VH: EVQLVESGGGLVQPGGSLRLSCAVSGYSITSGYYWWWIRQAPGKGLEWVAYISYDGNNNYNPSLKNRFTISRDTSKNTFYLQMNSLRAEDTAVYYCAREESTMITTAWFAYWGQGTLVTVSS VL: DIQMTQSPSSLSASVGDRVTITCRASENIYSNQAWYQQKPGKAPKLLIYGATNRASGVPSRFSGSGSGTDYTLTISSLQPEDFATYYCQHFWDTPYTFGQGTKVEIK
–	–	–	1.58	743000	Antibody 2E1_GH11 (antibody, V domains shown) VH: EVQLVESGGGLVQPGGSLRLSCAVSGYSITSGYYWWWIRQAPGKGLEWVAYISYDGNNNYNPSLKNRFTISRDTSKNTFYLQMNSLRAEDTAVYYCAREESTMITTAWFAYWGQGTLVTVSS VL: DIQMTQSPSSLSASVGDRVTITCNASENIYSNLAWYQQKPGKAPKLLIYGATNLASGVPSRFSGSGSGTDYTLTISSLQPEDFATYYCQHFWDTPYTFGQGTKVEIK
–	–	–	1.65	665000	Antibody 2E1_GE6 (antibody, V domains shown) VH: EVQLVESGGGLVQPGGSLRLSCAVSGYSITSGYYWWWIRQAPGKGLEWVAYISYDGNNNYNPSLKNRFTISRDTSKNTFYLQMNSLRAEDTAVYYCAREESTMITTAWFAYWGQGTLVTVSS VL: DIQMTQSPSSLSASVGDRVTITCRASENIYSNNAWYQQKPGKAPKLLIYGATYLASGVPSRFSGSGSGTDYTLTISSLQPEDFATYYCQHFWDTPYTFGQGTKVEIK
–	–	–	1.56	688000	Antibody 2E1_GG1 (antibody, V domains shown) VH: EVQLVESGGGLVQPGGSLRLSCAVSGYSITSGYAWNWIRQAPGKGLEWVAYISYDGNNNYNPSLKNRFTISRDTSKNTFYLQMNSLRAEDTAVYYCAREESTMITTAWFAYWGQGTLVTVSS VL: DIQMTQSPSSLSASVGDRVTITCRASENIYSNLAWYQQKPGKAPKLLIYGATNLASGVPSRFSGSGSGTDYTLTISSLQPEDFATYYCQHFWDTPYTFGQGTKVEIK
–	–	–	1.51	646000	Antibody 2E1_GH4 (antibody, V domains shown) VH: EVQLVESGGGLVQPGGSLRLSCAVSGYSITSGYYWWWIRQAPGKGLEWVAYISYDGNNNYNPSLKNRFTISRDTSKNTFYLQMNSLRAEDTAVYYCAREESTMITTAWFAYWGQGTLVTVSS VL: DIQMTQSPSSLSASVGDRVTITCRASENIYSNLAWYQQKPGKAPKLLIYGATNFASGVPSRFSGSGSGTDYTLTISSLQPEDFATYYCQHFWDTPYTFGQGTKVEIK
–	–	–	1.47	659000	Antibody 2E1_GB8 (antibody, V domains shown) VH: EVQLVESGGGLVQPGGSLRLSCAVSGYSITSGYYWWWIRQAPGKGLEWVAYISYDGNNNYNPSLKNRFTISRDTSKNTFYLQMNSLRAEDTAVYYCAREESTMITTAWFAYWGQGTLVTVSS VL: DIQMTQSPSSLSASVGDRVTITCSASENIYSNLAWYQQKPGKAPKLLIYGATNLASGVPSRFSGSGSGTDYTLTISSLQPEDFATYYCQHFWDTPYTFGQGTKVEIK
